B1: recombinant human D-dopachrome tautomerase (natural protein, UniProt P30046 1-118, looked up)
chain: MPFLELDTNLPANRVPAGLEKRLCAAAASILGKPADRVNVTVRPGLAMALSGSTEPCAQLSISSIGVVGTAEDNRSHSAHFFEFLTKELALGQDRILIRFFPLESWQIGKIGTVMTFL
notes: D-dopachrome tautomerase (DDT), human; The protein was active as a tautomerase, so the initiator methionine is probably removed (surmise); also called rhDDT; DDT; source: E. coli BL21(DE3), pET20b(+), purified (Q sepharose, phenyl sepharose, Superdex75 SEC)
B2: recombinant murine D-dopachrome tautomerase (natural protein, UniProt O35215 1-118, looked up)
chain: MPFVELETNLPASRIPAGLENRLCAATATILDKPEDRVSVTIRPGMTLLMNKSTEPCAHLLVSSIGVVGTAEQNRTHSASFFKFLTEELSLDQDRIVIRFFPLEAWQIGKKGTVMTFL
notes: D-dopachrome tautomerase (DDT), murine; also called rmDDT; murine DDT; source: E. coli BL21(DE3), pET20b(+), purified (Q sepharose, phenyl sepharose, Superdex75 SEC)

Biological target: the molecule itself
Assay: SEC; Superdex75 column in 20 mM sodium phosphate buffer, pH 8.0; last step of the purification

| Protein | stoichiometry N |
| --- | --- |
| B1 | 3 |
| B2 | 3 |
